Source: US20230348612A1 (BEIJING MABWORKS BIOTECH, published 2023)

T1: CD20 on Raji cells (CD20+ tumor cells) (UniProt P11836 1-297, limits assumed)
T1 construct: whole, on cells; also called CD20^+ Raji cells
T1 sequence (looked up): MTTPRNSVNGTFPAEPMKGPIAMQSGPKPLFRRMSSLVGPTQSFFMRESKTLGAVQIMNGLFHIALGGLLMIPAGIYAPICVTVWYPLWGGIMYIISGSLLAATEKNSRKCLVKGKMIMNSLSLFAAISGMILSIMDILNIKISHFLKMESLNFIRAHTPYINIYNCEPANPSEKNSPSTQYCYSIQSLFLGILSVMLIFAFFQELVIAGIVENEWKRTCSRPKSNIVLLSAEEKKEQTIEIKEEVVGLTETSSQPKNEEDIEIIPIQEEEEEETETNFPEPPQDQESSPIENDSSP

B1: MBS303 (anti-CD3/CD20 bispecific antibody, anti-CD20 scFv with wildtype light chain framework regions) (bispecific antibody, human IgG1, kappa, lambda, L234A L235A, N297A)
heavy 1: QVQLVQSGAEVKKPGSSVKVSCKASGYAFSYSWINWVRQAPGQGLEWMGRIFPGDGDTDYNGKFKGRVTITADKSTSTAYMELSSLRSEDTAVYYCARNVFDGYWLVYWGQGTLVTVSSASTKGPSVFPLAPSSKSTSGGTAALGCLVKDYFPEPVTVSWNSGALTSGVHTFPAVLQSSGLYSLSSVVTVPSSSLGTQTYICNVNHKPSNTKVDKKVEPKSCDKTHTCPPCPAPEAAGGPSVFLFPPKPKDTLMISRTPEVTCVVVDVSHEDPEVKFNWYVDGVEVHNAKTKPREEQYASTYRVVSVLTVLHQDWLNGKEYKCKVSNKALPAPIEKTISKAKGQPREPQVYTLPPSREEMTKNQVSLSCAVKGFYPSDIAVEWESNGQPENNYKTTPPVLDSDGSFFLVSKLTVDKSRWQQGNVFSCSVMHEALHNHYTQKSLSLSPGK
light 1: DIVMTQTPLSLPVTPGEPASISCRSSKSLLHSNGITYLYWYLQKPGQSPQLLIYQMSNLVSGVPDRFSGSGSGTDFTLKISRVEAEDVGVYYCAQNLELPYTFGGGTKVEIKRTVAAPSVFIFPPSDEQLKSGTASVVCLLNNFYPREAKVQWKVDNALQSGNSQESVTEQDSKDSTYSLSSTLTLSKADYEKHKVYACEVTHQGLSSPVTKSFNRGEC
heavy 2: QVQLVQSGAEVKKPGSSVKVSCKASGYAFSYSWINWVRQAPGQGLEWMGRIFPGDGDTDYNGKFKGRVTITADKSTSTAYMELSSLRSEDTAVYYCARNVFDGYWLVYWGQGTLVTVSSGGGGSGGGGSGGGGSDIVMTQTPLSLPVTPGEPASISCRSSKSLLHSNGITYLYWYLQKPGQSPQLLIYQMSNLVSGVPDRFSGSGSGTDFTLKISRVEAEDVGVYYCAQNLELPYTFGGGTKVEIKGGGGSGGGGSGGGGSEVQLLESGGGLVQPGGSLRLSCAASGFTFNTYAMNWVRQAPGKGLEWVARIRSKYNNYATYYAISVKDRFTISRDDSKNTLYLQMNSLRAEDTAMYYCVRHGNFGNSYLSYWAYWGQGTLVTVSSASTKGPSVFPLAPSSKSTSGGTAALGCLVKDYFPEPVTVSWNSGALTSGVHTFPAVLQSSGLYSLSSVVTVPSSSLGTQTYICNVNHKPSNTKVDKKVEPKSCDKTHTCPPCPAPEAAGGPSVFLFPPKPKDTLMISRTPEVTCVVVDVSHEDPEVKFNWYVDGVEVHNAKTKPREEQYASTYRVVSVLTVLHQDWLNGKEYKCKVSNKALPAPIEKTISKAKGQPREPQVYTLPPSREEMTKNQVSLWCLVKGFYPSDIAVEWESNGQPENNYKTTPPVLDSDGSFFLYSKLTVDKSRWQQGNVFSCSVMHEALHNHYTQKSLSLSPGK
light 2: QAVVTQEPSLTVSPGGTVTLTCQSSTGAVTTNNYANWVQQKPGHAFRGLIGGTKQRAPGVPARFSGSLLGGKAALTLSGVQPEDEAEYYCVLWYSNLWVFGGGTKLTVLGQPKAAPSVTLFPPSSEELQANKATLVCLISDFYPGAVTVAWKADSSPVKAGVETTTPSKQSNNKYAASSYLSLTPEQWKSHRSYSCQVTHEGSTVEKTVAPTECS
notes: Asymmetric; half antibodies MIL220 and MIL221-2 were expressed separately and assembled in vitro; also called MIL220 + MIL221-2
B2: MBS303m (with 83E, 100Q and 104-106LTA) (anti-CD3/CD20 bispecific antibody, anti-CD20 scFv with mutated light chain framework regions) (bispecific antibody, human IgG1, kappa, lambda, L234A L235A, N297A)
heavy 1: B1 heavy 1
light 1: B1 light 1
heavy 2: QVQLVQSGAEVKKPGSSVKVSCKASGYAFSYSWINWVRQAPGQGLEWMGRIFPGDGDTDYNGKFKGRVTITADKSTSTAYMELSSLRSEDTAVYYCARNVFDGYWLVYWGQGTLVTVSSGGGGSGGGGSGGGGSGGGGSDIVMTQTPLSLPVTPGEPASISCRSSKSLLHSNGITYLYWYLQKPGQSPQLLIYQMSNLVSGVPDRFSGSGSGTDFTLKISRVEAEDEGVYYCAQNLELPYTFGQGTKLTAKGGGGSGGGGSGGGGSEVQLLESGGGLVQPGGSLRLSCAASGFTFNTYAMNWVRQAPGKGLEWVARIRSKYNNYATYYAISVKDRFTISRDDSKNTLYLQMNSLRAEDTAMYYCVRHGNFGNSYLSYWAYWGQGTLVTVSSASTKGPSVFPLAPSSKSTSGGTAALGCLVKDYFPEPVTVSWNSGALTSGVHTFPAVLQSSGLYSLSSVVTVPSSSLGTQTYICNVNHKPSNTKVDKKVEPKSCDKTHTCPPCPAPEAAGGPSVFLFPPKPKDTLMISRTPEVTCVVVDVSHEDPEVKFNWYVDGVEVHNAKTKPREEQYASTYRVVSVLTVLHQDWLNGKEYKCKVSNKALPAPIEKTISKAKGQPREPQVYTLPPSREEMTKNQVSLWCLVKGFYPSDIAVEWESNGQPENNYKTTPPVLDSDGSFFLYSKLTVDKSRWQQGNVFSCSVMHEALHNHYTQKSLSLSPGK
light 2: B1 light 2
notes: also called MIL220 + MIL221-3 (with 83E, 100Q, 104-106LTA)

Target: T1, CD20 on Raji cells (CD20+ tumor cells)
Experiment: FACS on Raji cells
Method: For the assay to test the MBS303 and MBS303m′ binding activity to Raji and Jurkat cells, 10⁵ Raji or Jurkat cells were plated on 96-well ELISA plates in 100 μ1 cell culture medium, and the ELISA plates were added with 50 μl serially diluted MBS303 and MBS303m, respectively. […] The ELISA plates were incubated 4° C. for 1 h, washed with PBS for three times, and subject to the BD flow cytometry system for FACS.

Row | binding result | Binder
1 | binds | B1
2 | binds | B2
